Columns and labels:
HLA-A*24:03 [1] = assay: IEDB peptide-MHC binding, purified MHC/competitive/fluorescence; filed as Kd, often an IC50 or EC50 that approximates it; ≥ and ≤ were set here for values at or beyond the usual limits of such assays
HLA-B*44:02 [2] = assay: IEDB peptide-MHC binding, purified MHC/competitive/radioactivity; filed as Kd, often an IC50 or EC50 that approximates it; ≥ and ≤ were set here for values at or beyond the usual limits of such assays; conditions: source organism: Dengue virus 1 Brazil/97-11/1997
HLA-B*58:01 [3] = assay: as above
HLA-B*27:05 = assay: IEDB peptide-MHC binding, purified MHC/direct/fluorescence; filed as Kd, often an IC50 or EC50 that approximates it; ≥ and ≤ were set here for values at or beyond the usual limits of such assays
HLA-A*01:01 = assay: as above
HLA-A*02:01 = assay: as above
HLA-B*44:02 [4] = assay: as above
HLA-A*03:01 [5] = assay: as above
HLA-A*31:01 = assay: as above
HLA-A*69:01 [6] = assay: as above
HLA-A*24:02 = assay: as above
HLA-B*40:01 = assay: as above
HLA-B*46:01 [7] = assay: as above
HLA-B*08:02 = assay: as above
HLA-B*39:01 [8] = assay: as above; conditions: source organism: H9N2 subtype Influenza A virus (A/swine/Korea/S83/2004(H9N2))
HLA-B*08:01 = assay: as above
HLA-A*11:01 = assay: as above
HLA-B*58:01 [9] = assay: as above
HLA-B*15:01 [10] = assay: as above
HLA-B*07:02 = assay: as above
HLA-B*48:01 = assay: as above; conditions: source organism: West Nile virus
HLA-B*18:01 [11] = assay: as above
HLA-B*57:01 [12] = assay: as above; conditions: source organism: West Nile virus
HLA-A*30:01 = assay: as above
HLA-A*26:01 [13] = assay: IEDB peptide-MHC binding, purified MHC/competitive/fluorescence; filed as Kd, often an IC50 or EC50 that approximates it; ≥ and ≤ were set here for values at or beyond the usual limits of such assays
HLA-B*39:01 [14] = assay: as above
HLA-A*26:01 [15] = assay: IEDB peptide-MHC binding, purified MHC/direct/fluorescence; filed as Kd, often an IC50 or EC50 that approximates it; ≥ and ≤ were set here for values at or beyond the usual limits of such assays
HLA-A*24:03 [16] = assay: as above; conditions: source organism: Pseudomonas putida
HLA-B*27:03 = assay: IEDB peptide-MHC binding, purified MHC/competitive/fluorescence; filed as Kd, often an IC50 or EC50 that approximates it; ≥ and ≤ were set here for values at or beyond the usual limits of such assays; conditions: source organism: Mycobacterium tuberculosis variant bovis BCG str. Pasteur 1173P2
HLA-A*68:02 = assay: as above; conditions: source organism: Mycobacterium tuberculosis variant bovis BCG str. Pasteur 1173P2
HLA-A*03:01 [17] = assay: as above; conditions: source organism: Mycobacterium tuberculosis variant bovis BCG str. Pasteur 1173P2
HLA-A*69:01 [18] = assay: as above; conditions: source organism: Mycobacterium tuberculosis variant bovis BCG str. Pasteur 1173P2
HLA-B*46:01 [19] = assay: as above; conditions: source organism: Mycobacterium tuberculosis variant bovis BCG str. Pasteur 1173P2
HLA-B*51:01 = assay: as above; conditions: source organism: Mycobacterium tuberculosis variant bovis BCG str. Pasteur 1173P2
HLA-A*29:02 = assay: as above; conditions: source organism: Mycobacterium tuberculosis variant bovis BCG str. Pasteur 1173P2
HLA-B*18:01 [20] = assay: as above; conditions: source organism: Mycobacterium tuberculosis variant bovis BCG str. Pasteur 1173P2
HLA-B*57:01 [21] = assay: as above; conditions: source organism: Mycobacterium tuberculosis variant bovis BCG str. Pasteur 1173P2
HLA-A*02:19 = assay: as above; conditions: source organism: Mycobacterium tuberculosis variant bovis BCG str. Pasteur 1173P2
HLA-B*15:17 = assay: as above; conditions: source organism: Mycobacterium tuberculosis variant bovis BCG str. Pasteur 1173P2
HLA-B*15:01 [22] = assay: as above; conditions: source organism: Mycobacterium tuberculosis variant bovis BCG str. Pasteur 1173P2
[23] = source organism: H9N2 subtype Influenza A virus (A/swine/Korea/S83/2004(H9N2))
[24] = source organism: Influenza A virus (A/Puerto Rico/8/34/Mount Sinai(H1N1))
[25] = source organism: West Nile virus
[26] = source organism: Pseudomonas putida
[27] = source organism: Pseudomonas aeruginosa
[28] = source organism: Mycobacterium tuberculosis variant bovis BCG str. Pasteur 1173P2
[29] = source organism: Influenza A virus (A/chicken/Vietnam/393/2005(H5N1))
[30] = source organism: Influenza A virus(A/swine/Shandong/fNY/2003(H9N2))
[31] = source organism: Yersinia pestis

CYPGYFADY
Kd (HLA-A*24:03 [1]; source organism: Influenza A virus (A/Harbin/1/1988(H1N2))): ≤ 0.001 µM

ERSWNSGYDW
Kd (HLA-B*44:02 [2]): 0.856 µM
Kd (HLA-B*58:01 [3]; source organism: Dengue virus 1 Brazil/97-11/1997): 0.0956 µM

HFQKDAKVL
Kd (HLA-B*27:05; [23]): ≥ 20 µM
Kd (HLA-A*01:01; [23]): ≥ 20 µM
Kd (HLA-A*02:01; [23]): ≥ 20 µM
Kd (HLA-B*44:02 [4]; [23]): ≥ 20 µM
Kd (HLA-A*03:01 [5]; [23]): ≥ 20 µM
Kd (HLA-A*31:01; [23]): ≥ 20 µM
Kd (HLA-A*69:01 [6]; [23]): ≥ 20 µM
Kd (HLA-A*24:02; [23]): ≥ 20 µM
Kd (HLA-B*40:01; [23]): ≥ 20 µM
Kd (HLA-B*46:01 [7]; [23]): ≥ 20 µM
Kd (HLA-B*08:02; source organism: Influenza A virus(A/swine/Shandong/fZC/2003(H9N2))): ≥ 20 µM
Kd (HLA-B*39:01 [8]): 10.4 µM
Kd (HLA-B*08:01; [24]): 2.3 µM
Kd (HLA-A*11:01; [23]): ≥ 20 µM
Kd (HLA-B*58:01 [9]; [23]): ≥ 20 µM
Kd (HLA-B*15:01 [10]; [24]): 2.66 µM
Kd (HLA-B*07:02; [23]): ≥ 20 µM

KHVQRIETW
Kd (HLA-B*58:01 [3]; source organism: Dengue virus 2 Jamaica/1409/1983): 0.145 µM

LASAILNAHK
Kd (HLA-B*58:01 [3]; source organism: Dengue virus 4 Dominica/814669/1981): 3.46 µM

LYAVTTAVL
Kd (HLA-B*27:05; [25]): ≥ 20 µM
Kd (HLA-A*01:01; [25]): ≥ 20 µM
Kd (HLA-B*44:02 [4]; [25]): ≥ 20 µM
Kd (HLA-A*03:01 [5]; [25]): ≥ 20 µM
Kd (HLA-A*31:01; [25]): ≥ 20 µM
Kd (HLA-B*48:01): ≥ 20 µM
Kd (HLA-A*69:01 [6]; [25]): ≥ 20 µM
Kd (HLA-B*40:01; [25]): ≥ 20 µM
Kd (HLA-B*46:01 [7]; [25]): ≥ 20 µM
Kd (HLA-B*18:01 [11]; [25]): ≥ 20 µM
Kd (HLA-B*57:01 [12]): ≥ 20 µM
Kd (HLA-A*30:01; source organism: West Nile virus strain PTRoxo): ≥ 20 µM
Kd (HLA-B*58:01 [9]; [25]): ≥ 20 µM
Kd (HLA-B*15:01 [10]; [25]): ≥ 20 µM
Kd (HLA-A*26:01 [13]; [25]): ≥ 20 µM
Kd (HLA-B*39:01 [14]; [25]): 0.459 µM

NWDWGVFFK
Kd (HLA-B*27:05; [26]): ≥ 20 µM
Kd (HLA-A*01:01; [26]): ≥ 20 µM
Kd (HLA-A*02:01; [26]): ≥ 20 µM
Kd (HLA-A*03:01 [5]; [26]): ≥ 20 µM
Kd (HLA-A*69:01 [6]; [26]): ≥ 20 µM
Kd (HLA-A*26:01 [15]; [26]): ≥ 20 µM
Kd (HLA-B*40:01; [26]): ≥ 20 µM
Kd (HLA-A*24:03 [16]): ≥ 20 µM
Kd (HLA-B*08:01; [26]): ≥ 20 µM
Kd (HLA-A*30:01; [27]): 2.1 µM
Kd (HLA-A*11:01; [27]): 0.0673 µM
Kd (HLA-B*58:01 [9]; [26]): ≥ 20 µM
Kd (HLA-B*15:01 [10]; [26]): ≥ 20 µM
Kd (HLA-B*07:02; [26]): ≥ 20 µM

RLAPEPVYT
Kd (HLA-B*27:03): ≥ 20 µM
Kd (HLA-A*68:02): ≥ 20 µM
Kd (HLA-A*03:01 [17]): ≥ 20 µM
Kd (HLA-A*69:01 [18]): ≥ 20 µM
Kd (HLA-A*26:01 [13]; [28]): ≥ 20 µM
Kd (HLA-B*46:01 [19]): ≥ 20 µM
Kd (HLA-B*51:01): ≥ 20 µM
Kd (HLA-A*24:03 [1]; [28]): ≥ 20 µM
Kd (HLA-A*29:02): 3 µM
Kd (HLA-B*18:01 [20]): ≥ 20 µM
Kd (HLA-B*57:01 [21]): ≥ 20 µM
Kd (HLA-A*02:19): 0.0932 µM
Kd (HLA-B*39:01 [14]; [28]): ≥ 20 µM
Kd (HLA-B*15:17): ≥ 20 µM
Kd (HLA-B*15:01 [22]): ≥ 20 µM

TAAVLLLITH
Kd (HLA-B*58:01 [3]; source organism: Dengue virus 3 Martinique/1243/1999): 0.751 µM

VLTGNLQTL
Kd (HLA-B*27:05; [29]): ≥ 20 µM
Kd (HLA-A*01:01; [29]): ≥ 20 µM
Kd (HLA-B*44:02 [4]; [29]): ≥ 20 µM
Kd (HLA-A*03:01 [5]; [29]): ≥ 20 µM
Kd (HLA-A*31:01; [29]): ≥ 20 µM
Kd (HLA-A*69:01 [6]; [29]): ≥ 20 µM
Kd (HLA-A*24:02; [29]): ≥ 20 µM
Kd (HLA-A*26:01 [15]; [30]): ≥ 20 µM
Kd (HLA-B*40:01; [29]): ≥ 20 µM
Kd (HLA-B*46:01 [7]; [29]): ≥ 20 µM
Kd (HLA-B*08:02; [30]): ≥ 20 µM
Kd (HLA-B*18:01 [11]; [29]): ≥ 20 µM
Kd (HLA-B*08:01; [29]): ≥ 20 µM
Kd (HLA-A*11:01; [29]): ≥ 20 µM
Kd (HLA-B*58:01 [9]; [29]): ≥ 20 µM
Kd (HLA-B*15:01 [10]; [29]): ≥ 20 µM
Kd (HLA-B*07:02; [29]): ≥ 20 µM

YGLGSTPLY
Kd (HLA-B*27:05; [31]): ≥ 20 µM
Kd (HLA-A*01:01; [31]): 14.1 µM
Kd (HLA-A*02:01; [31]): ≥ 20 µM
Kd (HLA-B*44:02 [4]; [31]): ≥ 20 µM
Kd (HLA-A*03:01 [5]; [31]): ≥ 20 µM
Kd (HLA-A*31:01; [31]): ≥ 20 µM
Kd (HLA-A*69:01 [6]; [31]): ≥ 20 µM
Kd (HLA-A*26:01 [15]; [31]): 5.87 µM
Kd (HLA-B*40:01; [31]): ≥ 20 µM
Kd (HLA-B*08:01; [31]): ≥ 20 µM
Kd (HLA-A*30:01; [31]): 3.59 µM
Kd (HLA-A*11:01; [31]): ≥ 20 µM
Kd (HLA-B*58:01 [9]; [31]): 10.4 µM
Kd (HLA-B*15:01 [10]; [31]): 0.332 µM
Kd (HLA-B*07:02; [31]): ≥ 20 µM

From the Immune Epitope Database (IEDB)
